The labels stand for the following.
B1: FOLR1-Ab4 (antibody, V domains shown)
VH: QIQLVQSGPELKKPGETVKISCKASIYTFTDYSIQWVKQAPGKGLKWMGWINTETGEPTYADDFKGRFAFSLESSASTAFLQINNLKNEDTATYFCARMGYYGPKIMDYWGQGTSVTVSS
VL: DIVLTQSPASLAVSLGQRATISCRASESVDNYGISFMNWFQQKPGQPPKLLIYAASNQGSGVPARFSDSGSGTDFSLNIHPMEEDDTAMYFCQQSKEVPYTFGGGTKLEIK
notes: Monoclonal antibody from a hybridoma clone; V regions amplified with mouse Ig primers
B2: FOLR1-Ab1 (antibody, V domains shown)
VH: QVQLQQPGAELVRPGASVKLSCKASGYTFTSYWMNWVKQRPEQGLEWIGRINPYDSETHSNQKFKDKAILTVDKSSTTAYMQLSSLTSEDSAVYYCARSGGYAWFAYWGQGTLVTVSA
VL: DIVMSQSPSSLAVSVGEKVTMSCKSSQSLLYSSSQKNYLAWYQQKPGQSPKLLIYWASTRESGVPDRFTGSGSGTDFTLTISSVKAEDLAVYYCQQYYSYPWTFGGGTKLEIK
notes: as for B1
B3: FOLR1-Ab20 (antibody, V domains shown)
VH: EVLLQQSGPELVKPGASVKIPCKASGYTFTDYNMDWVKQSHGKSLEWIGDINPNNGGTIYNQKFKGKATLTVDKSSSTAYMELRSLTSEDTAVYYCARKPYYGPRYFDVWGAGTTVTVSS
VL: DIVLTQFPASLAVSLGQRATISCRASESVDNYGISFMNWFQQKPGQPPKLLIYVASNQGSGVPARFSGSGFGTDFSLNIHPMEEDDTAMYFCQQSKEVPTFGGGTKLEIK
notes: as for B1
B4: FOLR1-Ab14 (antibody, V domains shown)
VH: B3 VH
VL: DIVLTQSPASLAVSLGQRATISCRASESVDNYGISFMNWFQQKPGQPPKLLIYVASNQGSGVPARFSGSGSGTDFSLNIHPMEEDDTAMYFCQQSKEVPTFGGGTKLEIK
notes: as for B1
B5: FOLR1-Ab23 (antibody, V domains shown)
VH: B3 VH
VL: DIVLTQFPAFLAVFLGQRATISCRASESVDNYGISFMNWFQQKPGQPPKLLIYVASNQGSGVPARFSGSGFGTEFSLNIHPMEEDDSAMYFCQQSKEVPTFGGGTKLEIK
notes: as for B1

Sequence of recombinant FOLR1 protein (rProtein) (P15328 25-234 limits assumed): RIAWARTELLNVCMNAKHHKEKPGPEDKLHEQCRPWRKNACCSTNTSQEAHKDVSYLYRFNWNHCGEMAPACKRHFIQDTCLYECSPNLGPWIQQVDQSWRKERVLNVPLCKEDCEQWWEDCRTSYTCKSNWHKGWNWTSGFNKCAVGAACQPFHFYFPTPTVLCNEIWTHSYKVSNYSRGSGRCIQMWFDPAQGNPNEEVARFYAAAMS

The assay has as its target recombinant FOLR1 protein (rProtein) (Homo sapiens (Human), UniProt P15328 25-234, limits assumed). Kind of assay: ELISA titration with varying concentrations of recombinant FOLR1 protein. How it is done: Antibodies were tested in an antigen binding assay using ELISA titration experiments.
Take B1: the “rProtein ELISA Affinity” value was found to be 0.78 nM.

For B2, the “rProtein ELISA Affinity” value was found to be 0.39 nM. B3: the “rProtein ELISA Affinity” value amounted to 12.5 nM. As for B4, the “rProtein ELISA Affinity” value stood at 3.12 nM. B5: the “rProtein ELISA Affinity” value stood at 6.25 nM.

Source of the values: US12378310 (MULTITUDE, dated 2025).
